In assay [1] the target is BUNV ∆7-Gc-HA (HA-tagged head/stalk-deleted Gc glycoprotein expressed by rBUNV-∆7-Gc-HA) (Bunyamwera orthobunyavirus). Description: affinity purification with mass spectrometry; C6/36 (insect) cells mock-infected or infected at MOI 1, 24 hpi; anti-HA immunoprecipitation of Gc-HA, TMTpro 16plex TMT-MS of the bead fractions, three biological repeats; abundances normalised to common Gc peptides.

Assay [2] has the same target. The assay can be described thus: affinity purification with mass spectrometry; A549 (mammalian) cells mock-infected or infected at MOI 1, 24 hpi; anti-HA immunoprecipitation of Gc-HA, TMTpro 16plex TMT-MS of the bead fractions, three biological repeats; abundances normalised to common Gc peptides.

In the case of “BUNV nucleocapsid protein (NP) (from UniProt P16495 1-233) (natural protein)”, the results for the log2 fold change of NP precipitated, WT-Gc-HA over ∆7-Gc-HA (log2 fold change) in assay [1] and in assay [2] were 2.76 and 0.24, respectively.

These data come from PMC13399505.
